Patent US20190030149

Experiments:
[1] = molecular target: T1, peptide CSLGEQQYSV (SEQ ID NO: 17), Example 5
T1 chain: CSLGEQQYSV

[2] = molecular target: T2, peptide CRVPGVAPTL (SEQ ID NO: 18), Example 4
T2 chain: CRVPGVAPTL

[3] = molecular target: T3, peptide CALLPAVPSL (SEQ ID NO: 16), Example 3
T3 chain: CALLPAVPSL

B1: Endoplasmic reticulum aminopeptidase 1 (protein)
chain: MVFLPLKWSLATMSFLLSSLLALLTVSTPSWCQSTEASPKRSDGTPFPWNKIRLPEYVIPVHYDLLIHANLTTLTFWGTTKVEITASQPTSTIILHSHHLQISRATLRKGAGERLSEEPLQVLEHPRQEQIALLAPEPLLVGLPYTVVIHYAGNLSETFHGFYKSTYRTKEGELRILASTQFEPTAARMAFPCFDEPAFKASFSIKIRREPRHLAISNMPLVKSVTVAEGLIEDHFDVTVKMSTYLVAFIISDFESVSKITKSGVKVSVYAVPDKINQADYALDAAVTLLEFYEDYFSIPYPLPKQDLAAIPDFQSGAMENWGLTTYRESALLFDAEKSSASSKLGITMTVAHELAHQWFGNLVTMEWWNDLWLNEGFAKFMEFVSVSVTHPELKVGDYFFGKCFDAMEVDALNSSHPVSTPVENPAQIREMFDDVSYDKGACILNMLREYLSADAFKSGIVQYLQKHSYKNTKNEDLWDSMASICPTDGVKGMDGFCSRSQHSSSSSHWHQEGVDVKTMMNTWTLQKGFPLITITVRGRNVHMKQEHYMKGSDGAPDTGYLWHVPLTFITSKSDMVHRFLLKTKTDVLILPEEVEWIKFNVGMNGYYIVHYEDDGWDSLTGLLKGTHTAVSSNDRASLINNAFQLVSIGKLSIEKALDLSLYLKHETEIMPVFQGLNELIPMYKLMEKRDMNEVETQFKAFLIRLLRDLIDKQTWTDEGSVSERMLRSQLLLLACVHNYQPCVQRAEGYFRKWKESNGNLSLPVDVTLAVFAVGAQSTEGWDFLYSKYQFSLSSTEKSQIEFALCRTQNKEKLQWLLDESFKGDKIKTQEFPQILTLIGRNPVGYPLAWQFLRKNWNKLVQKFELGSSSIAHMVMGTTNQFSTRTRLEEVKGFFSSLKENGSQLRCVQQTIETIEENIGWMDKNFDKIRVWLQSEKLERM
formation rate (%) of the peptide obtained by trimming (SEQ ID NO: 6), 1 hr later [1]: 77.6% | formation rate (%) of the peptide obtained by trimming (SEQ ID NO: 6), 2 hr later [1]: 72.8% | formation rate (%) of the peptide obtained by trimming (SEQ ID NO: 6), 4 hr later [1]: 46% | formation rate (%) of the peptide obtained by trimming (SEQ ID NO: 6), 8 hr later [1]: 7.9% | formation rate (%) of the peptide obtained by trimming (SEQ ID NO: 7), 1 hr later [2]: 59.1% | formation rate (%) of the peptide obtained by trimming (SEQ ID NO: 7), 2 hr later [2]: 57.5% | formation rate (%) of the peptide obtained by trimming (SEQ ID NO: 7), 4 hr later [2]: 30.1% | formation rate (%) of the peptide obtained by trimming (SEQ ID NO: 7), 8 hr later [2]: 7.8% | formation rate (%) of the peptide obtained by trimming (SEQ ID NO: 5), 1 hr later [3]: 65.5% | formation rate (%) of the peptide obtained by trimming (SEQ ID NO: 5), 2 hr later [3]: 50.6% | formation rate (%) of the peptide obtained by trimming (SEQ ID NO: 5), 4 hr later [3]: 13.5% | formation rate (%) of the peptide obtained by trimming (SEQ ID NO: 5), 8 hr later [3]: 0%
